Data as given in US20140274782A1, “AFFINITY REAGENTS AND METHODS FOR DETECTION, PURIFICATION, AND PROTEOMIC ANALYSIS OF METHYLATED PROTEINS” (The Board of Trustees of the Leland Stanford Junior …, priority 2013, published 2014).

Tests used:
3×MBT domain of L3MBTL1 = experiment: Triple SILAC pull-down, 3xMBT/3xMBTD355N ratio (cytoplasmic, nuclear and chromatin fractions of 293T cells); format: binding, human; conditions: SILAC ratio 3xMBT vs 3xMBTD355N pull-down, 293T cells, all values in log base 2; for 3xMBT/D355N UNC Heavy: experiment with UNC0638 in heavy SILAC media; for 3xMBT/D355N UNC Light: experiment with UNC0638 in light SILAC media;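 on all read-outs here: proteins quantified with MaxQuant, requiring at least two unique peptides and quantification in both label directions, normalized to the mean of proteins from a digested loading control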
G9a and GLP = target: T1, G9a and GLP (Homo sapiens, UniProt Q96KQ7+Q9H9B1); experiment: Triple SILAC pull-down after UNC0638 treatment of 293T cells, DMSO/UNC0638 ratio of protein captured by 3×MBT; format: cell-based; parameters: endogenous in cells; host or cells: HEK 293T; conditions: all values in log base 2; for Relative to UNC0638 UNC Heavy / Relative to UNC0638 UNC Light: SILAC ratio DMSO relative to UNC0638, pull-down with 3xMBT; for Relative to UNC0638 UNC Heavy: UNC0638 in heavy SILAC media; for Relative to UNC0638 UNC Light: UNC0638 in light SILAC media; for Relative to UNC0638 Average: average of UNC Light and UNC Heavy experiments;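 on all read-outs here: mass spectrometry (Q-Exactive) SILAC quantitation, DMSO/UNC0638 ratio computed after subtracting 3×MBTD355N mutant pull-down background, only proteins with at least twofold 3×MBT over mutant signal considered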
T1 sequence (Q96KQ7 2-1210 limits assumed): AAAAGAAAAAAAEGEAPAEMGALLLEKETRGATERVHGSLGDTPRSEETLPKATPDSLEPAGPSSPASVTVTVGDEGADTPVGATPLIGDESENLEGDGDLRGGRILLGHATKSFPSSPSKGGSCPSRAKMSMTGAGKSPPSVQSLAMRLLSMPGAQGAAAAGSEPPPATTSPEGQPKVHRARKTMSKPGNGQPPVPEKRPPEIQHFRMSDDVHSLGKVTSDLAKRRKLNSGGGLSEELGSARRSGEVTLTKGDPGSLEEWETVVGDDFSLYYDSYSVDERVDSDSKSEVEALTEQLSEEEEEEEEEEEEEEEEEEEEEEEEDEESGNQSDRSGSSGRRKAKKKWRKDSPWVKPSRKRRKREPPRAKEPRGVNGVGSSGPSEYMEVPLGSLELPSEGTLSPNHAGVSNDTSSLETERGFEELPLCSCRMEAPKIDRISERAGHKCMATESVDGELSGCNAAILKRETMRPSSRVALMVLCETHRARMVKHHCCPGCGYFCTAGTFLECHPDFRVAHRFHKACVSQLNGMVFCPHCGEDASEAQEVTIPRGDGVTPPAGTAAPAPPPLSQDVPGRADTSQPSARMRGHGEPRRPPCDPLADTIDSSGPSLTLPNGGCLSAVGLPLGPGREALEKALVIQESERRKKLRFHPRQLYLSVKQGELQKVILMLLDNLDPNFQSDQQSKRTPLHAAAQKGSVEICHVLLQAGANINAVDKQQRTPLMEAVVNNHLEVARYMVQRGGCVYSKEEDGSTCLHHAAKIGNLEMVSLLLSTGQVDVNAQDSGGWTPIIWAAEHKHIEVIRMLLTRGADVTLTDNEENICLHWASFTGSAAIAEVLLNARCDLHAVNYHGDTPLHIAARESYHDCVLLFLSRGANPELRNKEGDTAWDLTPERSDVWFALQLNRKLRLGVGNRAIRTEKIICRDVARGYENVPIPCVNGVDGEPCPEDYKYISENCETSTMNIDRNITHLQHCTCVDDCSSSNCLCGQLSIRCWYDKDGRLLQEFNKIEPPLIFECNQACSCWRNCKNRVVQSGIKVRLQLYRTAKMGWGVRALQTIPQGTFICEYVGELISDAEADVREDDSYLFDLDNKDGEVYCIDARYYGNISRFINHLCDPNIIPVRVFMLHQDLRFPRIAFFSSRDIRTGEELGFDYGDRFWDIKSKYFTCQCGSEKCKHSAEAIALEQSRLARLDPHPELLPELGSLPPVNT
T1 sequence (Q9H9B1 2-1298 limits assumed): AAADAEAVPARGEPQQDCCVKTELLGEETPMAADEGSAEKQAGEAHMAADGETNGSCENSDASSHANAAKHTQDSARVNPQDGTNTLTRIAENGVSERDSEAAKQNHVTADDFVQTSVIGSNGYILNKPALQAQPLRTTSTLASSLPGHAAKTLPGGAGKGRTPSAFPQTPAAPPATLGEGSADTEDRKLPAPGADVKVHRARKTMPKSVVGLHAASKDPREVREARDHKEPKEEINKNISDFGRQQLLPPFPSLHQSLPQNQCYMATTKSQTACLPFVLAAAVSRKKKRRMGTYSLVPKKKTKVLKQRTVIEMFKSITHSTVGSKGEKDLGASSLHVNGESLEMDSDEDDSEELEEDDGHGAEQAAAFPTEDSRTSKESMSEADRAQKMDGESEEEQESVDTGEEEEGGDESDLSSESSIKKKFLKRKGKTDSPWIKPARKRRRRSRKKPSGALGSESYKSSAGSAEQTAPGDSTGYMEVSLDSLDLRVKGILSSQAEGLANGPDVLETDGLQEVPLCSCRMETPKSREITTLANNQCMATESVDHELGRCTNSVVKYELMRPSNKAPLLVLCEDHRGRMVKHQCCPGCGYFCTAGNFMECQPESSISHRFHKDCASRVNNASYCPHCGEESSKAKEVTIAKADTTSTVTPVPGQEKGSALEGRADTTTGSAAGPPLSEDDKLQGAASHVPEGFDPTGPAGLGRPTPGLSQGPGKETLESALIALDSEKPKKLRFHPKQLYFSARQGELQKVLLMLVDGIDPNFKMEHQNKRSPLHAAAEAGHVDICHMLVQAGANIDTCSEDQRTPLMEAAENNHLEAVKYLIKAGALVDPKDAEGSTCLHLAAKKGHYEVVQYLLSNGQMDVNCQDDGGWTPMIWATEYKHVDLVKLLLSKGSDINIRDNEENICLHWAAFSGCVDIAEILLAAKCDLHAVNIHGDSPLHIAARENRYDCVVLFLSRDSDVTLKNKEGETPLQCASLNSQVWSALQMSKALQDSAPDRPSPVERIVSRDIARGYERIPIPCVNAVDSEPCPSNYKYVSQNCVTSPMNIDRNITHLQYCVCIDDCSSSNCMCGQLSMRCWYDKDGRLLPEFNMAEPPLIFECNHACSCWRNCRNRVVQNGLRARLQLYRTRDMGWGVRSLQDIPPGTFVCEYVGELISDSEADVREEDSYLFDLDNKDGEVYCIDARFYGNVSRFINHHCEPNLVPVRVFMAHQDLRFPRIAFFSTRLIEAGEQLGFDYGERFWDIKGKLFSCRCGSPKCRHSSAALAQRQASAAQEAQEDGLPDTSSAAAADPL

Molecule	3xMBT/D355N UNC Heavy (3×MBT domain of L3MBTL1)	3xMBT/D355N UNC Light (3×MBT domain of L3MBTL1)	Relative to UNC0638 UNC Heavy (G9a and GLP)	Relative to UNC0638 UNC Light (G9a and GLP)	Relative to UNC0638 Average (G9a and GLP)
SMARCA1 (protein, UniProt P28370 1-1042, looked up) SWI/SNF-related …: MEQDTAAVAATVAAADATATIVVIEDEQPGPSTSQEEGAAAAATEATAATEKGEKKKEKNVSSFQLKLAAKAPKSEKEMDPEYEEKMKADRAKRFEFLLKQTELFAHFIQPSAQKSPTSPLNMKLGRPRIKKDEKQSLISAGDYRHRRTEQEEDEELLSESRKTSNVCIRFEVSPSYVKGGPLRDYQIRGLNWLISLYENGVNGILADEMGLGKTLQTIALLGYLKHYRNIPGPHMVLVPKSTLHNWMNEFKRWVPSLRVICFVGDKDARAAFIRDEMMPGEWDVCVTSYEMVIKEKSVFKKFHWRYLVIDEAHRIKNEKSKLSEIVREFKSTNRLLLTGTPLQNNLHELWALLNFLLPDVFNSADDFDSWFDTKNCLGDQKLVERLHAVLKPFLLRRIKTDVEKSLPPKKEIKIYLGLSKMQREWYTKILMKDIDVLNSSGKMDKMRLLNILMQLRKCCNHPYLFDGAEPGPPYTTDEHIVSNSGKMVVLDKLLAKLKEQGSRVLIFSQMTRLLDILEDYCMWRGYEYCRLDGQTPHEEREEAIEAFNAPNSSKFIFMLSTRAGGLGINLASADVVILYDSDWNPQVDLQAMDRAHRIGQKKPVRVFRLITDNTVEERIVERAEIKLRLDSIVIQQGRLIDQQSNKLAKEEMLQMIRHGATHVFASKESELTDEDITTILERGEKKTAEMNERLQKMGESSLRNFRMDIEQSLYKFEGEDYREKQKLGMVEWIEPPKRERKANYAVDAYFREALRVSEPKIPKAPRPPKQPNVQDFQFFPPRLFELLEKEILYYRKTIGYKVPRNPDIPNPALAQREEQKKIDGAEPLTPEETEEKEKLLTQGFTNWTKRDFNQFIKANEKYGRDDIDNIAREVEGKSPEEVMEYSAVFWERCNELQDIEKIMAQIERGEARIQRRISIKKALDAKIARYKAPFHQLRIQYGTSKGKNYTEEEDRFLICMLHKMGFDRENVYEELRQCVRNAPQFRFDWFIKSRTAMEFQRRCNTLISLIEKENMEIEERERAEKKKRATKTPMVKFSAFS	0.79 log base 2	3.03 log base 2	−0.35 log base 2	0.18 log base 2	−0.09 log base 2
YTHDC2 (protein, UniProt Q9H6S0 1-1430, looked up) 3'-5' RNA helicase YTHDC2: MSRPSSVSPRQPAPGGGGGGGPSPCGPGGGGRAKGLKDIRIDEEVKIAVNIALERFRYGDQREMEFPSSLTSTERAFIHRLSQSLGLVSKSKGKGANRYLTVKKKDGSETAHAMMTCNLTHNTKHAVRSLIQRFPVTNKERTELLPKTERGNVFAVEAENREMSKTSGRLNNGIPQIPVKRGESEFDSFRQSLPVFEKQEEIVKIIKENKVVLIVGETGSGKTTQIPQFLLDDCFKNGIPCRIFCTQPRRLAAIAVAERVAAERRERIGQTIGYQIRLESRVSPKTLLTFCTNGVLLRTLMAGDSTLSTVTHVIVDEVHERDRFSDFLLTKLRDLLQKHPTLKLILSSAALDVNLFIRYFGSCPVIYIQGRPFEVKEMFLEDILRTTGYTNKEMLKYKKEKQQEEKQQTTLTEWYSAQENSFKPESQRQRTVLNVTDEYDLLDDGGDAVFSQLTEKDVNCLEPWLIKEMDACLSDIWLHKDIDAFAQVFHLILTENVSVDYRHSETSATALMVAAGRGFASQVEQLISMGANVHSKASNGWMALDWAKHFGQTEIVDLLESYSATLEFGNLDESSLVQTNGSDLSAEDRELLKAYHHSFDDEKVDLDLIMHLLYNICHSCDAGAVLIFLPGYDEIVGLRDRILFDDKRFADSTHRYQVFMLHSNMQTSDQKKVLKNPPAGVRKIILSTNIAETSITVNDVVFVIDSGKVKEKSFDALNFVTMLKMVWISKASAIQRKGRAGRCRPGICFRLFSRLRFQNMLEFQTPELLRMPLQELCLHTKLLAPVNCPIADFLMKAPEPPPALIVRNAVQMLKTIDAMDTWEDLTELGYHLADLPVEPHLGKMVLCAVVLKCLDPILTIACTLAYRDPFVLPTQASQKRAAMLCRKRFTAGAFSDHMALLRAFQAWQKARSDGWERAFCEKNFLSQATMEIIIGMRTQLLGQLRASGFVRARGGGDIRDVNTNSENWAVVKAALVAGMYPNLVHVDRENLVLTGPKEKKVRFHPASVLSQPQYKKIPPANGQAAAIKALPTDWLIYDEMTRAHRIANIRCCSAVTPVTILVFCGPARLASNALQEPSSFRVDGIPNDSSDSEMEDKTTANLAALKLDEWLHFTLEPEAASLLLQLRQKWHSLFLRRMRAPSKPWSQVDEATIRAIIAVLSTEEQSAGLQQPSGIGQRPRPMSSEELPLASSWRSNNSRKSSADTEFSDECTTAERVLMKSPSPALHPPQKYKDRGILHPKRGTEDRSDQSSLKSTDSSSYPSPCASPSPPSSGKGSKSPSPRPNMPVRYFIMKSSNLRNLEISQQKGIWSTTPSNERKLNRAFWESSIVYLVFSVQGSGHFQGFSRMSSEIGREKSQDWGSAGLGGVFKVEWIRKESLPFQFAHHLLNPWNDNKKVQISRDGQELEPLVGEQLLQLWERLPLGEKNTTD	1.74 log base 2	2.87 log base 2	−0.10 log base 2	−0.07 log base 2	−0.08 log base 2
GTPBP1 (protein, UniProt O00178 1-669, looked up) GTP-binding protein 1: MATERSRSAMDSPVPASMFAPEPSSPGAARAAAAAARLHGGFDSDCSEDGEALNGEPELDLTSKLVLVSPTSEQYDSLLRQMWERMDEGCGETIYVIGQGSDGTEYGLSEADMEASYATVKSMAEQIEADVILLRERQEAGGRVRDYLVRKRVGDNDFLEVRVAVVGNVDAGKSTLLGVLTHGELDNGRGFARQKLFRHKHEIESGRTSSVGNDILGFDSEGNVVNKPDSHGGSLEWTKICEKSTKVITFIDLAGHEKYLKTTVFGMTGHLPDFCMLMVGSNAGIVGMTKEHLGLALALNVPVFVVVTKIDMCPANILQETLKLLQRLLKSPGCRKIPVLVQSKDDVIVTASNFSSERMCPIFQISNVTGENLDLLKMFLNLLSPRTSYREEEPAEFQIDDTYSVPGVGTVVSGTTLRGLIKLNDTLLLGPDPLGNFLSIAVKSIHRKRMPVKEVRGGQTASFALKKIKRSSIRKGMVMVSPRLNPQASWEFEAEILVLHHPTTISPRYQAMVHCGSIRQTATILSMDKDCLRTGDKATVHFRFIKTPEYLHIDQRLVFREGRTKAVGTITKLLQTTNNSPMNSKPQQIKMQSTKKGPLTKRDEGGPSGGPAVGAPPPGDEASSVGAGQPAASSNLQPQPKPSSGGRRRGGQRHKVKSQGACVTPASGC	−0.64 log base 2	1.80 log base 2	−0.27 log base 2	0.13 log base 2	−0.07 log base 2
